Values joined by “and” are separate entries in the source; they are usually repeats but may differ in a detail not shown here. Equal values may be shown once.
What was measured:
[1] = biological target: T1, Agrobacterium Sp. β-glucosidase (Abg, GH1 family) (Agrobacterium sp., UniProt P12614); assay: Michaelis-Menten kinetics of enzymatic hydrolysis, release of 4-nitrophenol (absorbance at 405 nm); type: biochemical; conditions: transglycosylation suggested for rate enhancement
T1 sequence (P12614 1-459): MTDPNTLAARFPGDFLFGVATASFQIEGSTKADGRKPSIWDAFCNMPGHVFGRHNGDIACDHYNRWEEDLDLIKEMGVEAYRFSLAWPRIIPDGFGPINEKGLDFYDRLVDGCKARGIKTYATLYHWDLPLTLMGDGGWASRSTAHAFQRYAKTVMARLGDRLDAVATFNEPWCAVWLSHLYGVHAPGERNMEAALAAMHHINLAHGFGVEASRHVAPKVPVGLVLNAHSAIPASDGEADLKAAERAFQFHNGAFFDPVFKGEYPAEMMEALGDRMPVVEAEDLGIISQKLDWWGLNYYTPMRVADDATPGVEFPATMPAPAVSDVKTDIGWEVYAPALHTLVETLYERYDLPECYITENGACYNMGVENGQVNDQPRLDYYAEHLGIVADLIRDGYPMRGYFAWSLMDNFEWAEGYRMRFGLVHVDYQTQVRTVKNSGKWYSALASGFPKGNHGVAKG
Experimental: (§1) Enzymatic reactions were performed in triplo at pH 6.8 (50 mM final concentration) containing 0.1 % bovine serum albumin at 37 °C.[25] Aliquots of 100 μL were taken at constant time periods and added to 100 μL aq. NaOH (0.1 M) in a 96‐well microtitre plate to quench the enzymatic reaction and ensure maximal absorption of sodium 4‐nitrophenolate as outlined in previous studies.[28] The initial rate (vo) was determined normalized on the ∼0.1 U/mL enzyme concentration and plotted against substrate concentration [S]. Non‐linear regression analysis based on 7–10 concentrations depending on the glycoside, was used to determine the Km and k cat values. k cat values were normalized based on the enzyme concentration. […]
(§2) Kinetic evaluation of 4- nitrophenyloxymethyl glycosides. Enzyme reactions were performed in triplicate. Substrate samples (final volume of 1 mL) were prepared by diluting carefully prepared substrate stock solutions with sodium phosphate buffer pH 6.8 (50 mM final concentration) containing 0.1% bovine serum albumin and milliQ to the desired concentration. The samples were equilibrated at 37 °C for at least 5 minutes before the enzyme in 50 mM buffer (2 U per ml, 50 uL) was added. Aliquots of 100 µL were taken at constant time periods and added to 100 µL aq. NaOH (0.1 M) in a 96 well microtiter plate to quench the enzymatic reaction. The absorbance was measured at 405 nm using a Tecan Spark M10 plate reader.
(§3) Negative assay controls contained no substrate or no enzyme. Rates of the enzymatic reactions were determined at 7 different substrate concentrations from 0.02 – 1.0 mM. Km and kcat values were determined by nonlinear regression analysis using Graphpad 5.0 (GraphPad Software, San Diego, California USA, www.graphpad.com) for fitting the data. Calibration samples at varying concentration (0.05 – 0.5 mM) were prepared similar to the substrate samples in the enzyme reactions by diluting a carefully prepared 4-nitrophenol stock solution with sodium phosphate buffer pH 6.8 (50 mM final concentration) containing 0.1% bovine serum albumin and milliQ to the desired concentration. […]
(§4) (T1 determined as 9.13 sec.) was used. Dynamic measurements were started by heating the sample in the NMR to 37 °C and recording a t0-spectrum. Subsequently Abg (V = 2.05 uL, 0.82 U, 1.64 U/mL) was added to the sample outside of the NMR. The sample was mixed by shaking and quickly reintroduced to the NMR.
(§5) The time of enzyme addition was recorded as t0. Spectra were recorded over an appropriate time- scale with the relaxation delay at 3*T1 of the internal standard.
(§6) In vivo experiments were performed at the company Charles Rivers (Den Bosch, The Netherlands) in accordance with Dutch law of animal experiments and under approval of the central committee of animal experiments (CCD). Relative and absolute bioavailability may be determined in different animal models and according to different protocols.
(§7) The following protocol is typical for determining bioavailability in female Beagle dogs. The animals were deprived from food over a time period of 8 h prior to administration and 2 h after administration of the test molecules. Water was supplied without limitation. On the study day, the animals received test molecule 10h […]
(§8) ethanol and 0.9% NaCl + 5% mannitol in water. Blood samples were collected from the jugular vein on the […]

[2] = biological target: T2, Abg (Agrobacterium Sp. β-glucosidase) (Agrobacterium sp., UniProt P12614); assay: Enzymatic conversion of glycoside-drug conjugates at 200 μM analyzed by HPLC; type: biochemical; conditions: for Product release: 200 μM substrate, 50 mM phosphate buffer pH 6.8, Abg 0.1 U/mL; for Product release / Enzymatic hydrolysis by Abg (in words): 37 °C; for Enzymatic hydrolysis by Abg (in words): HPLC
T2 sequence (P12614 1-459): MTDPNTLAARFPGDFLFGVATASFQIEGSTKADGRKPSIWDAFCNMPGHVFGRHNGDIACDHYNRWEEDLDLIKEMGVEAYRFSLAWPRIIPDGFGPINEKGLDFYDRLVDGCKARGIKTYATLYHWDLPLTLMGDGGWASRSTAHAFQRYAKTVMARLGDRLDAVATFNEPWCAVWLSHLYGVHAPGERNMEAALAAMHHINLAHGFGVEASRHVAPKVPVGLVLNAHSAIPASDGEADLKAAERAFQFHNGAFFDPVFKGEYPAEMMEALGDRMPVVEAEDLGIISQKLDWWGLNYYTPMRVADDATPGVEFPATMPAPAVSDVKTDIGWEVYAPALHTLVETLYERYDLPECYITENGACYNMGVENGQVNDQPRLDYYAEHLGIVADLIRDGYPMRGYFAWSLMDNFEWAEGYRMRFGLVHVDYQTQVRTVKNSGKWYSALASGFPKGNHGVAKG

[3] = substrate: C[C@H]1O[C@@H](OCOc2ccc([N+](=O)[O-])cc2)[C@H](O)[C@@H](O)[C@@H]1O; assay: Michaelis-Menten kinetics of enzymatic hydrolysis, release of 4-nitrophenol (absorbance at 405 nm); type: biochemical, Agrobacterium Sp.; conditions: other: 4-nitrophenyloxymethyl glycosides 5a-f, phosphate buffer pH 6.8, 0.1 % BSA, 37 °C, N.A: no activity
Experimental: as §1, §2, §3, §4, §5, §6, §7, §8

[4] = substrate: C[C@H]1O[C@@H](Oc2ccc([N+](=O)[O-])cc2)[C@H](O)[C@@H](O)[C@@H]1O; assay: as above; type: biochemical, Agrobacterium Sp.; conditions: other: 4-nitrophenyl glycosides 6a-f, phosphate buffer pH 6.8, 0.1 % BSA, 37 °C
Experimental: as §1, §2, §3, §4, §5, §6, §7, §8

[5] = substrate: O=[N+]([O-])c1ccc(OCO[C@@H]2O[C@H](CO)[C@H](O)[C@H](O)[C@H]2O)cc1; assay: as above; type: biochemical, Agrobacterium Sp.; conditions: other: 4-nitrophenyloxymethyl glycosides 5a-f, phosphate buffer pH 6.8, 0.1 % BSA, 37 °C, N.A: no activity
Experimental: as §1, §2, §3, §4, §5, §6, §7, §8

[6] = substrate: C[C@H]1O[C@@H](Oc2ccc([N+](=O)[O-])cc2)[C@H](O)[C@@H](O)[C@H]1O; assay: as above; type: biochemical, Agrobacterium Sp.; conditions: other: 4-nitrophenyl glycosides 6a-f, phosphate buffer pH 6.8, 0.1 % BSA, 37 °C
Experimental: as §1, §2, §3, §4, §5, §6, §7, §8

[7] = substrate: O=[N+]([O-])c1ccc(O[C@@H]2O[C@H](CO)[C@H](O)[C@H](O)[C@H]2O)cc1; assay: as above; type: biochemical, Agrobacterium Sp.; conditions: other: 4-nitrophenyl glycosides 6a-f, phosphate buffer pH 6.8, 0.1 % BSA, 37 °C
Experimental: as §1, §2, §3, §4, §5, §6, §7, §8

[8] = substrate: O=[N+]([O-])c1ccc(O[C@@H]2O[C@H](CO)[C@@H](O)[C@H](O)[C@H]2O)cc1; assay: as above; type: biochemical, Agrobacterium Sp.; conditions: other: 4-nitrophenyl glycosides 6a-f, phosphate buffer pH 6.8, 0.1 % BSA, 37 °C
Experimental: as §1, §2, §3, §4, §5, §6, §7, §8

[9] = substrate: O=[N+]([O-])c1ccc(OCO[C@@H]2O[C@H](CO)[C@@H](O)[C@H](O)[C@H]2O)cc1; assay: as above; type: biochemical, Agrobacterium Sp.; conditions: other: 4-nitrophenyloxymethyl glycosides 5a-f, phosphate buffer pH 6.8, 0.1 % BSA, 37 °C, N.A: no activity
Experimental: as §1, §2, §3, §4, §5, §6, §7, §8

[10] = substrate: O=[N+]([O-])c1ccc(O[C@@H]2OC[C@@H](O)[C@H](O)[C@H]2O)cc1; assay: as above; type: biochemical, Agrobacterium Sp.; conditions: other: 4-nitrophenyl glycosides 6a-f, phosphate buffer pH 6.8, 0.1 % BSA, 37 °C
Experimental: as §1, §2, §3, §4, §5, §6, §7, §8

[11] = substrate: O=[N+]([O-])c1ccc(O[C@@H]2OC[C@H](O)[C@H](O)[C@H]2O)cc1; assay: as above; type: biochemical, Agrobacterium Sp.; conditions: other: 4-nitrophenyl glycosides 6a-f, phosphate buffer pH 6.8, 0.1 % BSA, 37 °C
Experimental: as §1, §2, §3, §4, §5, §6, §7, §8

[12] = substrate: C[C@H]1O[C@@H](OCOc2ccc([N+](=O)[O-])cc2)[C@H](O)[C@@H](O)[C@H]1O; assay: as above; type: biochemical, Agrobacterium Sp.; conditions: other: 4-nitrophenyloxymethyl glycosides 5a-f, phosphate buffer pH 6.8, 0.1 % BSA, 37 °C, N.A: no activity
Experimental: as §1, §2, §3, §4, §5, §6, §7, §8

[13] = 200 μM, in presence of 5 % ethanol
[14] = 0.5 h, in presence of 5 % ethanol
[15] = 1.0 h, in presence of 5 % ethanol
[16] = 2.0 h, in presence of 5 % ethanol

C[C@H]1O[C@@H](Oc2ccc([N+](=O)[O-])cc2)[C@H](O)[C@@H](O)[C@@H]1O [6 b]
V0 at high substrate concentration (in words) [1]: over expected rate‐enhancement

O=[N+]([O-])c1ccc(O[C@@H]2OC[C@@H](O)[C@H](O)[C@H]2O)cc1 [6 c, 4‐nitrophenyl xylose]
V0 at high substrate concentration (in words) [1]: over expected rate‐enhancement

O=[N+]([O-])c1ccc(O[C@@H]2O[C@H](CO)[C@H](O)[C@H](O)[C@H]2O)cc1 [6 d]
V0 at high substrate concentration (in words) [1]: followed a horizontal asymptote

C[C@H]1O[C@@H](Oc2ccc([N+](=O)[O-])cc2)[C@H](O)[C@@H](O)[C@H]1O [6 e]
V0 at high substrate concentration (in words) [1]: followed a horizontal asymptote

OC[C@H]1O[C@@H](OCOc2ccccc2)[C@H](O)[C@@H](O)[C@@H]1O [10 a]
Product release ([2]; 0.5 h): 38.6±2.3% | Product release ([2]; 1.0 h): 66.0±2.0% | Product release ([2]; 2.0 h): 90% and 89.8±1.7% | Increase in conversion compared to direct conjugate Glc−Ph ([2]; after two hours, 200 μM, Abg): twenty

CC(C)c1cccc(C(C)C)c1OCO[C@@H]1O[C@H](CO)[C@@H](O)[C@H](O)[C@H]1O [10 b]
Enzymatic hydrolysis by Abg (in words) [2, 13]: not hydrolyzed | Product release [2, 14]: 1.95±0.3% | Product release [2, 15]: 1.73±0.3% | Product release [2, 16]: 1.66±0.4%

CCCCc1nc(Cl)c(CO)n1Cc1ccc(-c2ccccc2-c2nnn(CO[C@@H]3O[C@H](CO)[C@@H](O)[C@H](O)[C@H]3O)n2)cc1 [10 i]
Enzymatic hydrolysis by Abg (in words) [2, 13]: hydrolyzed slower | Product release [2, 14]: 16.7±4.8% | Product release [2, 15]: 39.3±2.2% | Product release [2, 16]: 51.3±4% | Product release ([2]; 24 h, in presence of 5 % ethanol): 74.7±10%

OC[C@H]1O[C@@H](Oc2ccccc2)[C@H](O)[C@@H](O)[C@@H]1O [Glc−Ph, phenyl β‐D‐glucopyranoside, reference compound]
Product release ([2]; 0.5 h): 1.9±0.04% | Product release ([2]; 1.0 h): 3.0±0.30% | Product release ([2]; 2.0 h): 5.2±0.16% | Product release ([2]; 24 h): 28% and 27.7±5.5%

B1: Agrobacterium Sp. β-glucosidase (Abg, GH1 family) (Agrobacterium sp. ATCC 21400) (protein)
chain: MTDPNTLAARFPGDFLFGVATASFQIEGSTKADGRKPSIWDAFCNMPGHVFGRHNGDIACDHYNRWEEDLDLIKEMGVEAYRFSLAWPRIIPDGFGPINEKGLDFYDRLVDGCKARGIKTYATLYHWDLPLTLMGDGGWASRSTAHAFQRYAKTVMARLGDRLDAVATFNEPWCAVWLSHLYGVHAPGERNMEAALAAMHHINLAHGFGVEASRHVAPKVPVGLVLNAHSAIPASDGEADLKAAERAFQFHNGAFFDPVFKGEYPAEMMEALGDRMPVVEAEDLGIISQKLDWWGLNYYTPMRVADDATPGVEFPATMPAPAVSDVKTDIGWEVYAPALHTLVETLYERYDLPECYITENGACYNMGVENGQVNDQPRLDYYAEHLGIVADLIRDGYPMRGYFAWSLMDNFEWAEGYRMRFGLVHVDYQTQVRTVKNSGKWYSALASGFPKGNHGVAKG
Km [3]: 239 µM | kcat [3]: 0.796 s⁻¹ | kcat/Km [3]: 3330 M⁻¹ s⁻¹ | Km [4]: 169 µM | kcat [4]: 29.5 s⁻¹ | kcat/Km [4]: 175000 M⁻¹ s⁻¹ | Km [5]: 1870 µM | kcat [5]: 3.71 s⁻¹ | kcat/Km [5]: 1980 M⁻¹ s⁻¹ | Km [6]: 233 µM | kcat [6]: 60.3 s⁻¹ | kcat/Km [6]: 259000 M⁻¹ s⁻¹ | Km [7]: 3450 µM | kcat [7]: 63.6 s⁻¹ | kcat/Km [7]: 18400 M⁻¹ s⁻¹ | Km [8]: 108 µM | kcat [8]: 38.8 s⁻¹ | kcat/Km [8]: 359000 M⁻¹ s⁻¹ | Km [9]: 84 µM | kcat [9]: 18.4 s⁻¹ | kcat/Km [9]: 219000 M⁻¹ s⁻¹ | Km [10]: 244 µM | kcat [10]: 0.580 s⁻¹ | kcat/Km [10]: 2380 M⁻¹ s⁻¹ | Km [11]: 175 µM | kcat [11]: 1.03 s⁻¹ | kcat/Km [11]: 5890 M⁻¹ s⁻¹ | Km [12]: 202 µM | kcat [12]: 7.18 s⁻¹ | kcat/Km [12]: 35500 M⁻¹ s⁻¹

Source: publication PMC9304170, “Chloromethyl Glycosides as Versatile Synthons to Prepare Glycosyloxymethyl‐Prodrugs” (Chemistry (Weinheim an Der Bergstrasse, Germany), 2022)
